Experimental data taken from patent US10738094B2, “Peptides and combination of peptides for use in immunotherapy against ovarian cancer and other cancers” (immatics biotechnologies GmbH, priority 2015, dated 2020).

Experiments:
HLA-A*02:01 = HLA-A*02:01 (Homo sapiens, UniProt P04439, D140Y/D185E/D98H/E176V/E277Q/G131W/G231S/I119V/I121R/I166T/I218V/L300P/L318F/N151K/N90K/P208A/P217A/Q86G/Q94H/R138H/R169H/T345S); assay: MHC binding assay (UV-ligand exchange, beta2m ELISA); details: binding to HLA-A*02:01 ranged by peptide exchange yield (UV-ligand exchange, β2m ELISA)
Procedure, shortened: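 UV-cleavable ligand in peptide-MHC complexes was exchanged for test peptide. Exchange yield came from an ELISA on streptavidin-captured complexes diluted 100 fold, detecting β2m with HRP anti-β2m (2 ug/ml, 1 h, 37° C.), TMB, A450.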

CD8+ T cells = assay: In vitro immunogenicity for MHC class I presented peptides (priming of CD8+ T cells with aAPCs, pMHC multimer staining); format: cell-based, human; details: for Wells positive [%]: HLA-A*02 restricted peptides, positive wells among evaluable
Excerpt: In order to obtain information regarding the immunogenicity of the TUMAPs of the present invention, the inventors performed investigations using an in vitro T-cell priming assay based on repeated stimulations of CD8+ T cells with artificial antigen presenting cells (aAPCs) loaded with peptide/MHC complexes and anti-CD28 antibody.
In order to perform in vitro stimulations by artificial antigen presenting cells loaded with peptide-MHC complex (pMHC) and anti-CD28 antibody, the inventors first isolated CD8+ T cells from fresh HLA-A*02 leukapheresis products via positive selection using CD8 microbeads (Miltenyi Biotec, Bergisch-Gladbach, Germany) of healthy donors obtained from the University clinics Mannheim, Germany, after informed consent.
PBMCs and isolated CD8+ lymphocytes were incubated in T-cell medium (TCM) until use consisting of RPMI-Glutamax (Invitrogen, Karlsruhe, Germany) supplemented with 10% heat inactivated human AB serum (PAN-Biotech, Aidenbach, Germany), 100 U/ml Penicillin/100 μg/ml Streptomycin (Cambrex, Cologne, Germany), 1 mM sodium pyruvate (CC Pro, Oberdorla, Germany), 20 μg/ml Gentamycin (Cambrex). 2.5 ng/ml IL-7 (PromoCell, Heidelberg, Germany) and 10 U/ml IL-2 (Novartis Pharma, Nürnberg, Germany) were also added to the TCM at this step.
Generation of pMHC/anti-CD28 coated beads, T-cell stimulations and readout was performed in a highly defined in vitro system using four different pMHC molecules per stimulation condition and 8 different pMHC molecules per readout condition.
The purified co-stimulatory mouse IgG2a anti human CD28 Ab 9.3 (Jung et al., 1987) was chemically biotinylated using Sulfo-N-hydroxysuccinimidobiotin as recommended by the manufacturer (Perbio, Bonn, Germany). Beads used were 5.6 μm diameter streptavidin coated polystyrene particles (Bangs Laboratories, Illinois, USA).
pMHC used for positive and negative control stimulations were A*0201/MLA-001 (peptide […] (SEQ ID NO. 664) from modified Melan-A/MART-1) and A*0201/DDX5-001 ([…] from DDX5, SEQ ID NO. 665), respectively.
800,000 beads/200 μl were coated in 96-well plates in the presence of 4×12.5 ng different biotin-pMHC, washed and 600 ng biotin anti-CD28 were added subsequently in a volume of 200 μl. Stimulations were initiated in 96-well plates by co-incubating […] CD8+ T cells with 2×10^5 washed coated beads in 200 μl TCM supplemented with 5 ng/ml IL-12 (PromoCell) for 3 days at 37° C. Half of the medium was then exchanged by fresh TCM supplemented with 80 U/ml IL-2 and incubating was continued for 4 days at 37° C. This stimulation cycle was performed for a total of three times. For the pMHC multimer readout using 8 different pMHC molecules per condition, a two-dimensional combinatorial coding approach was used as previously described (Andersen et al., 2012) with minor modifications encompassing coupling to 5 different fluorochromes. Finally, multimeric analyses were performed by staining the cells with Live/dead near IR dye (Invitrogen, Karlsruhe, Germany), CD8-FITC antibody clone SK1 (BD, Heidelberg, Germany) and fluorescent pMHC multimers. For analysis, a BD LSRII SORP cytometer equipped with appropriate lasers and filters was used. Peptide specific cells were calculated as percentage of total CD8+ cells. Evaluation of multimeric analysis was done using the FlowJo software (Tree Star, Oreg., USA). In vitro priming of specific multimer+ CD8+ lymphocytes was detected by comparing to negative control stimulations.
Exemplary flow cytometry results after TUMAP-specific multimer staining for two peptides of the invention are shown in FIG. 3 together with corresponding negative controls.

Row | Peptide exchange (HLA-A*02:01) | Substance | Wells positive [%] (CD8+ T cells) | in vitro immunogenicity: donors (CD8+ T cells; percentage of positive donors)
1 | “++” (≥20% = ++) | 499 (KIFDIDEAEEGV; listed as Homo sapiens) [compound 499] | “+” (<20% = +) | –
2 | “++” (≥20% = ++) | 511 (FLDPYCSASV; listed as Homo sapiens) [compound 511] | “+” (<20% = +) | –
3 | “+++” (≥50 = +++) | 489 (KMWEELPEVV; listed as Homo sapiens) [compound 489] | “+” (<20% = +) | –
4 | “+++” (≥50 = +++) | 384 (ILFANPNIFV; listed as Homo sapiens) [compound 384] | “+” (<20% = +) | –
5 | “+++” (≥50 = +++) | 443 (GLWEIENNPTV; listed as Homo sapiens) [compound 443] | “+” (<20% = +) | –
6 | “++++” (≥75% = ++++) | 460 (AMLEKNYKL; listed as Homo sapiens) [compound 460] | “+” (<20% = +) | –
7 | “+++” (≥50 = +++) | 514 (ILVDWLVQV; listed as Homo sapiens) [compound 514] | – | –
8 | “+++” (≥50 = +++) | 286 (YLFPGIPEL; listed as Homo sapiens) [compound 286] | – | –
9 | “+++” (≥50 = +++) | 485 (NVPDSFNEV; listed as Homo sapiens) [compound 485] | – | –
10 | “++” (≥20% = ++) | 461 (VMFRTPLASV; listed as Homo sapiens) [compound 461] | – | –
11 | “+++” (≥50 = +++) | 468 (YLRSVGDGETV; listed as Homo sapiens) [compound 468] | – | –
12 | “+++” (≥50 = +++) | 497 (GLLEKLTAI; listed as Homo sapiens) [compound 497] | – | –
13 | “++++” (≥75% = ++++) | 348 (ILLDVKTRL; listed as Homo sapiens) [compound 348] | – | –
14 | “+++” (≥50 = +++) | 202 (ALLDQQGSRWTL; listed as Homo sapiens) [compound 202] | – | –
15 | “++” (≥20% = ++) | 242 (AIAYILQGV; listed as Homo sapiens) [compound 242] | – | –
16 | “+++” (≥50 = +++) | 326 (FLPEALDFV; listed as Homo sapiens) [compound 326] | – | –
17 | “+++” (≥50 = +++) | 543 (GLLPTPITQQASL; listed as Homo sapiens) [compound 543] | – | –
18 | “+++” (≥50 = +++) | 439 (YLLQEIYGI; listed as Homo sapiens) [compound 439] | – | –
19 | “+++” (≥50 = +++) | 437 (SMAPGLVIQAV; listed as Homo sapiens) [compound 437] | – | –
20 | “+++” (≥50 = +++) | 481 (GLIEDYEALL; listed as Homo sapiens) [compound 481] | – | –
21 | “+++” (≥50 = +++) | 573 (ILVANAIVGV; listed as Homo sapiens) [compound 573] | – | –
22 | “++” (≥20% = ++) | 275 (YLVYILNEL; listed as Homo sapiens) [compound 275] | – | –
23 | “+++” (≥50 = +++) | 441 (ALLENPKMEL; listed as Homo sapiens) [compound 441] | – | –
24 | “++” (≥20% = ++) | 270 (LLLDEEGTFSL; listed as Homo sapiens) [compound 270] | – | –
25 | “++++” (≥75% = ++++) | 527 (FLLEPGNLEV; listed as Homo sapiens) [compound 527] | – | –
26 | “++” (≥20% = ++) | 228 (AMQEYIAVV; listed as Homo sapiens) [compound 228] | – | –

More lines, now with the values behind:

Row | Substance | Peptide exchange (HLA-A*02:01) | Wells positive [%] (CD8+ T cells) | in vitro immunogenicity: donors (CD8+ T cells; percentage of positive donors)
27 | 56 (KLYEGIPVLL; listed as Homo sapiens) [compound 56] | “++++” (≥75% = ++++) | “+” (<20% = +) | –
28 | 199 (ALQDVPLSSV; listed as Homo sapiens) [compound 199] | “+++” (≥50 = +++) | “+” (<20% = +) | –
29 | 8 (FTLGNVVGMYL; listed as Homo sapiens) [compound 8] | “++++” (≥75% = ++++) | “+” (<20% = +) | –
30 | 143 (LLLDITPEI; listed as Homo sapiens) [compound 143] | “++++” (≥75% = ++++) | “+” (<20% = +) | –
31 | 2 (SLLEADPFL; listed as Homo sapiens) [compound 2] | “+++” (≥50 = +++) | “+” (<20% = +) | –
32 | 113 (GLLPTPLFGV; listed as Homo sapiens) [compound 113] | “+++” (≥50 = +++) | “+” (<20% = +) | –
33 | 60 (SLTIDGIYYV; listed as Homo sapiens) [compound 60] | “++++” (≥75% = ++++) | “++++” (>=70% = ++++) | –
34 | 79 (SLFIGEKAVLL; listed as Homo sapiens) [compound 79] | “+++” (≥50 = +++) | “+” (<20% = +) | –
35 | 118 (KLIDNNINV; listed as Homo sapiens) [compound 118] | “+++” (≥50 = +++) | “+” (<20% = +) | –
36 | 166 (YLNHLEPPV; listed as Homo sapiens) [compound 166] | “+++” (≥50 = +++) | “++++” (>=70% = ++++) | –
37 | 3 (SLASKLTTL; listed as Homo sapiens) [compound 3] | “++++” (≥75% = ++++) | “+” (<20% = +) | –
38 | 652 (TLWYRAPEV; listed as Homo sapiens) [compound 652] | – | – | ++++ (>=70% = ++++)
39 | 198 (KTINKVPTV; listed as Homo sapiens) [compound 198] | “+++” (≥50 = +++) | – | –
40 | 109 (IILSILEQA; listed as Homo sapiens) [compound 109] | “++++” (≥75% = ++++) | – | –
41 | 29 (KMLGIPISNILMV; listed as Homo sapiens) [compound 29] | “+++” (≥50 = +++) | – | –
42 | 4 (GIMEHITKI; listed as Homo sapiens) [compound 4] | “++++” (≥75% = ++++) | – | –
43 | 82 (FLSSVTYNL; listed as Homo sapiens) [compound 82] | “+++” (≥50 = +++) | – | –
44 | 41 (SLMPHIPGL; listed as Homo sapiens) [compound 41] | “+++” (≥50 = +++) | – | –
45 | 196 (YLYSVEIKL; listed as Homo sapiens) [compound 196] | “++++” (≥75% = ++++) | – | –
46 | 22 (IMEENPGIFAV; listed as Homo sapiens) [compound 22] | “+++” (≥50 = +++) | – | –
47 | 96 (YIFTDNPAAV; listed as Homo sapiens) [compound 96] | “+++” (≥50 = +++) | – | –
48 | 163 (ALDEMGDLLQL; listed as Homo sapiens) [compound 163] | “+++” (≥50 = +++) | – | –
49 | 45 (SLWQDIPDV; listed as Homo sapiens) [compound 45] | “+++” (≥50 = +++) | – | –
50 | 132 (LLVEQPPLAGV; listed as Homo sapiens) [compound 132] | “+++” (≥50 = +++) | – | –
51 | 111 (YVWGFYPAEV; listed as Homo sapiens) [compound 111] | “+++” (≥50 = +++) | – | –
52 | 158 (KLFDVDEDGYI; listed as Homo sapiens) [compound 158] | “+++” (≥50 = +++) | – | –
